Data as given in the nanobody polyreactivity screen of Harvey et al. (2022).

Test: yeast display, Sf9 membrane polyspecificity reagent, FACS + sequencing; frameworks hold sequencing errors
How it was run: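 Sorting gates, low and high (top ~1%), were placed on anti-HA fluorescence to track expression and on streptavidin fluorescence to track reagent binding. A clone's polyreactivity label is taken from the gate it came out of. The reagent was 10% biotinylated, detergent-solubilized Sf9 membrane, applied for 1 hour at 4 °C to galactose-induced yeast display cells.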

Row | Sequence | polyreactivity (PSR sort gate)
1 | QVQLVESGGGLVQAGCSLRLSCAASGGTFSLNAMGCYRQAPGKERELVAAITWTGDRTYYADSVKGRFTISRDNAKNTVYLQMNSLKPEDTAVYYCAAVGGYYPGDYWGQGTQVTVSS | low polyreactivity
2 | QVQLVESGGGLVQAGCSLRLSCAASGITFELYAMGSYRQAPGKERELVAAISSNGGITFYADSVKGRFTISRDYAKNTVYLQMKSLKPEDTEVYYCAARYVRYPRYDYWGQGTQVTVSS | high polyreactivity
3 | QVQLVESGGGLVQAGCSLRLSCAASGITFTYYAMGWYRQAPGKERELVAAINTGGNTNYADSVKGRFTISRDYAKNSVYLQMNSLKPEDTAVYYCAAYWYYYWWYDYWGQGTQVSVSS | high polyreactivity
4 | QVQLVESGGGLVQAGCSLRLSCAASGITFVYYAMGRYRQAAGKERELVAAITTGGSTNYADSVKGRFTISRDNAKYTVYLQMNSLKPEDTAVYYCNKRPVILYDYWGQGTQVTVSS | low polyreactivity
5 | QVQLVESGGGLVQAGCSLRLSCAASGNTYYSYTMGWYRQAPGKERELVAAITGSGSTYYADSVKGRFTISRDNAKNTVYLQMNSLKPEDTAVYYCASRYVERHTDYYYWGQGTQVTVSS | low polyreactivity
6 | QVQLVESGGGLVQAGCSLRLSCAASGRIDRRYAMGWYRQAPGKERDLFAAISSRGGRTYYADSVKGRFTISRDNAMNTVYLQMNSLKQEDTAVYYCAARPAGYGHYKYYYWGKGTQVTVSS | high polyreactivity
7 | QVQLVESGGGLVQAGCSLRLSCAASGRIFRGNAMGWYRQAPGKERELVARITGNDGDTYYADSVKGRFTISRDNAKNTVYLQMNSLNPEDTAVYYCATDTSSYRRRYYYWGQGTQVTVSS | low polyreactivity
8 | QVQLVESGGGLVQAGCSLRLSCAASGRIFRKNTMGWYIQAPGKEWELVAAISFRGASTYYADSVKGRFTISRDNAKNTVYLQMNSLKPEDTAVYYCATVRAHASRLGYDYWGQGTQVTVSS | high polyreactivity
9 | QVQLVESGGGLVQAGCSLRLSCAASGRIFTHNAMGWYRPAPGKERELVAAITSGGRTTYADSVKGRFTFSRDNAKNTVYLQMHSLNPEDTAVYYCNADTGLGSLDFDKRDYWGQGTQVTVSS | low polyreactivity
10 | QVQLVESGGGLVQAGCSLRLSCAASGRIFTSNAMGWYRQAPGTERELVAVISRRGGSTYYADSVKGRFTISRDNAMNTVYLQMNSLKPEDTAVYYCARRPYSYTRYEYWGQGTQVTVSS | low polyreactivity
11 | QVQLVESGGGLVQAGCSLRLSCAASGRIIDGYAMGWYRQAPGKEREFVAAITWIGGRTYYADSVKGRFTISRDNAKITVYLHMNSLKPEDTAVYYCAVVQSRYRGRFDYWGQGTQVTVTS | high polyreactivity
12 | QVQLVESGGGLVQAGCSLRLSCAASGRIITRYPMGWYRQAPGKERELVAAISYGGGGTYYADSVKGRFTISRDNAKNTVYLQMNSLKPDDTAVYYCATDDPLSQINEQGMDYWGQGTQVTVSS | low polyreactivity
13 | QVQLVESGGGLVQAGCSLRLSCAASGRNFRYYAMGLYRQAPGKERELVAAIDTGDTYYADSVKGRFTISRDNAKYTGYLQMNSLKPEDTAVYYSAAEGSTSLDDYWGQGTQVTVSS | high polyreactivity
14 | QVQLVESGGGLVQAGCSLRLSCAASGRTFGRNAMGWNRQAPGKERELVAAITSGGSTSYADSVKGRFTISRDNAKNTVYLQMNSLKPEDTAVYYCAADVRPYYTRRVWIQFDYWGQGTQVTVSS | high polyreactivity
15 | QVQLVESGGGLVQAGCSLRLSCAASGRTFTLNAMGWYRQAPGKERELVADITYSDGDTYYADSVKGRFTISRDNAKNTVYLQMNSLIPEDTAGYYCAAGGYTDPGYEYWGQGTQVTVSS | low polyreactivity
16 | QVQLVESGGGLVQAGCSLRLSCAASGRTFYHYGMGWYRQAPGKERELVAAINFSGGSTNYADSVKGRFTISRDNAKNTVYLQMNSLKTEDTAVYNCNKEGRPDRDYWGQGTQVTVSS | low polyreactivity
17 | QVQLVESGGGLVQAGCSLRLSCAASGSIFAYYTMGWYRQAAGKERELVATISSGDITNYADSVKGRFTISRDNAKNSVYLQMNSLKPEDTAVYFCAAAELTSYYRTFIHKDYDFWGQGTQVSVSS | low polyreactivity
18 | QVQLVESGGGLVQAGCSLRLSCAASGSIFDVNAMGWYRQAPGKERELVAAISQRGNRTYYADSVKGRFTISRDNAKNTVYLQMNSLKPEDTAVYYCNRGGWRQYDSWGQGTQVTVSS | high polyreactivity
19 | QVQLVESGGGLVQAGCSLRLSCAASGSNFYRNSMRWYRQAPGKERELVAGITTRGGSTYYADSVKGRFTISRDNAKNTVYLQMNSLKPEDTEVYYCNARSYTGSYFKYYYWGQGTQVTVSS | high polyreactivity
20 | QVQLVESGGGLVQAGCSLRLSCAASGSTFRKYAMGWYSQAPGKQREFVAAITSSGGSTYYSDSVKGRFTISRDKAKNTVYLLMNSLIPEDTAVYYCASRGVYVSTAYNYWGQGTQVTESS | high polyreactivity
21 | QVQLVESGGGLVQAGCSLRLSCAASGSTFRRYAMGWYRQAPGKERELVAAISGGGTSTYYADSVEGRFTISRDNAKNTVDLQMNSLKPEDTAVYYCNAKTYYARYDYWGQGTQVSVSS | high polyreactivity
22 | QVQLVESGGGLVQAGCSLRLSCAASGTFGLYAMGWYRQAPGKERELVAAIRARGGSTYYADSVKGRFTISRDNAKNTVYLQMNSLKPEDTAVYYCAAEFWDVSLARKQWYDYWGQGTQVSVSS | high polyreactivity

Row | Sequence | polyreactivity (PSR sort gate)
23 | QVQLVESGGGLVQAGCSLRLSCAASRYIFYFYAMGWYRQAPGKERELVAAINSGGTTNYADSVKGRFTISRDNAKNTVYLQMNSLKAEDTAVYYCAARLLIRYYYWGQGTQVTVSS | high polyreactivity
24 | QVQLVESGGGLVQAGCSLRLSCAATGCSFKYNTMGWYRQAPGKERELVAAITSGGGSTYYADSVKGRFTISRDNAKNTVYLPMNRLKPEDTAVYYCAAYRRNTYWGQGTQVTVSA | high polyreactivity
25 | QVQLVESGGGLVQAGCSRRFSCAASGFTFYKNAMGWYRQAPGKERELVAAITSSGGTTYYADSVKGRFTISRDNAKNTVYLQMNSLNPEDTAVYYCAARASRPRFGYWGQGTQVTVSS | high polyreactivity
26 | QVQLVESGGGLVQAGDSLRLSCAASGSIFVYYAMGWYRQAPGKERELVASISKTGGRTYYADSVKGRFTISRDNAKNTVFLQMNSLKPEDTAVYYCAARYTIRYKRYDYWGQGSQVTVSS | high polyreactivity
27 | QVQLVESGGGLVQAGFSLRLSCAASGFTFKYYAMGWYRQAPGKERELVAAISSGGSTYYADSVKGRFTISRDNAKNTVYLQMNSLKPEDTAVYYCNRRFAPFWGRYGYWGQGTKVTVSS | high polyreactivity
28 | QVQLVESGGGLVQAGGCLRLSCAASGFTLRYNAMGWSRQAPGKERELVAAITTGGRTNYADSVKGRFTISRDNAKKTVYLQMNSLKPEDTAVYNCNKVFRSFDYWGQGTQVTVSS | high polyreactivity
29 | QVQLVESGGGLVQAGGCLRLSCAASGSIFGYNAMGWYRHAPGKERELVAAISWRGGSTYYADSVKGRFTISRDNAKNSVYLQMNSLKPEDTAVYYCNTLYPYRHDYAGDYWGQGTQVTVSA | high polyreactivity
30 | QVQLVESGGGLVQAGGCLRLSCAASGSTFSPNAMGWYRQAPGKERELVAAISVSCGTTYYADSVKGRFTISRDNAKNTVYLQMNSLKPEDTAVYYCAAKPYPTDDYWGQGTQVTVSS | low polyreactivity
31 | QVQLVESGGGLVQAGGGLRLSCAASGNTFRYYAMGWYIQAPGKERELVATITSGGRTYYADSVKGRFTISRDNAKNTVYLQMNSLKPEDTAVYYCNADYFQDRLDYWGQGTQVTVSS | low polyreactivity
32 | QVQLVESGGGLVQAGGGLRLSCAASGSIFLINAMGWYRQAPGKERELVAAITSGSSTNYADSVKGRFTISRDNAKNTVYLQMNSLKPEDTAVYYCAASTPYSYRYDYWGQGTQVTVSS | low polyreactivity
33 | QVQLVESGGGLVQAGGGLRLSSAASGTFKRNAVGWYRQAPGKERELVATITRTGSTTYADSVKGRFTISRDNAMNTVYLQMNSLKPEDTAVYYCAAGYPPEDPEDYWGQGTQVTVSS | low polyreactivity
34 | QVQLVESGGGLVQAGGILPLSCAASGSIFVSNAMGWSRQAPGKERELVAAISSGSTYYADSVKGRFTISRDNAKNTVYLQMNSLKPEDTAVFYCIARSLLYEFDYWGQGTQVTVSS | low polyreactivity
35 | QVQLVESGGGLVQAGGILRFSCAASGRISVVNAMAWFRQAPGKARELVAAIRRASTNYADSVKGRFTISRDNAKNTVYLQMNSLKPEDTAVYYCAARVYGINIFEYWGQGTQVTLSS | high polyreactivity
36 | QVQLVESGGGLVQAGGILRISCAASGRTFIMNAMGWYRQAPGKERELVAAINWSGGTSTYYADSVKGRFTISRDNAKNTVYFQMNSLKPEDTAVYYCAADYYSYVYYDYWGQGTLVTVSS | low polyreactivity
37 | QVQLVESGGGLVQAGGILRLSCAASGFIFAPNAMGWYRQPPGKERELVAAISASGGSTYYADSVKGRFTISRDNAKNTVYLQMNSLKPEDTAVYYCAADRTFSSFPEYNYWGQGTQVTVSS | low polyreactivity
38 | QVQLVESGGGLVQAGGILRLSCAASGFIFDSYAMGWYRQAPGKERELVAAINWNGGRTYYADSVKGRFTISRDNAKNTVYLQMNRLKPEDTAVYYCAKDTDNWDVGGYVYDYDYWGQGTQVTVSS | high polyreactivity
39 | QVQLVESGGGLVQAGGILRLSCAASGFIFRKYAMGWYRQAPGKERELVAAINKSGGSTYYADSVKGRFTISRDNAKNTVYLQMNSLKPEDSAVYYCATVRTYRPPVRRGYWGQGTLVTVSS | high polyreactivity
40 | QVQLVESGGGLVQAGGILRLSCAASGFTFHRYAMGWYRQAPGKERELVARITRGGSTKYADSVKGRFTISRDNAKNTVYLQMNSLKPEDTAVYYCAADYGGFLGYDYWGQGNQVTVSS | high polyreactivity
41 | QVQLVESGGGLVQAGGILRLSCAASGFTFPWYTMGWYRQAPGKERELVAAISKSGGSTYYADSVKGRFTISRDNAKNTVFLQMNSLKPEDTAVYYCAARGNLYVGGDERFWGQGTQVTVSS | high polyreactivity
42 | QVQLVESGGGLVQAGGILRLSCAASGFTLLPYAMGWYTQAPGKERELVAAISRRGVSTYYADSVKGRFTLSRDNAKNTVYLPMNSLNPQDTAVNYCAADSYSRATVQYEYWGQCTQVTVSS | high polyreactivity
43 | QVQLVESGGGLVQAGGILRLSCAASGGIFNRYSKGWYRQAPGKERELVAGITRSGGSTSYADSVKGRFTISRDNAKNTVYLQMNSLKPEDTAVYFCKKVAYYASSSSYRFGAYGYWGQGSQVTVSS | high polyreactivity
